Assay results taken from article PMC11894413, “The conformational landscape of TRiC ring-opening and its underlying stepwise mechanism revealed by cryo-EM” (QRB Discovery, 2024).

B1: CCT2 subunit of yeast TRiC/CCT (natural protein, UniProt P39076 1-527, looked up)
chain: MSVQIFGDQVTEERAENARLSAFVGAIAVGDLVKSTLGPKGMDKLLQSASSNTCMVTNDGATILKSIPLDNPAAKVLVNISKVQDDEVGDGTTSVTVLSAELLREAEKLIDQSKIHPQTIIEGYRLASAAALDALTKAAVDNSHDKTMFREDLIHIAKTTLSSKILSQDKDHFAELATNAILRLKGSTNLEHIQIIKILGGKLSDSFLDEGFILAKKFGNNQPKRIENAKILIANTTLDTDKVKIFGTKFKVDSTAKLAQLEKAEREKMKNKIAKISKFGINTFINRQLIYDYPEQLFTDLGINSIEHADFEGVERLALVTGGEVVSTFDEPSKCKLGECDVIEEIMLGEQPFLKFSGCKAGEACTIVLRGATDQTLDEAERSLHDALSVLSQTTKETRTVLGGGCAEMVMSKAVDTEAQNIDGKKSLAVEAFARALRQLPTILADNAGFDSSELVSKLRSSIYNGISTSGLDLNNGTIADMRQLGIVESYKLKRAVVSSASEAAEVLLRVDNIIRARPRTANRQHM
notes: CCT2 subunit of the chaperonin TRiC/CCT, yeast; subunit of the purified hetero-oligomeric complex; Purified according to Zang et al., 2016; source: endogenous, purified from yeast lysate as part of TRiC (calmodulin resin, eluted with 2 mM EGTA)
B2: CCT6 subunit of yeast TRiC/CCT (natural protein)
chain: not shown
notes: CCT6 subunit of the chaperonin TRiC/CCT, yeast; subunit of the purified hetero-oligomeric complex; Purified according to Zang et al., 2016; source: endogenous, purified from yeast lysate as part of TRiC (calmodulin resin, eluted with 2 mM EGTA)

Key:
[1] = biological target: T1, CCT4 subunit of yeast TRiC/CCT (yeast, UniProt P39078 1-528); assay: cryo-EM structure; purified yeast TRiC, 1 mg/ml, with 1 mM ADP and 5 mM MgCl2, 15 min at 30 °C before freezing; five conformational states S1-S5 (closed to open) from one sample; contacts differ between the states; conditions: both partners purified
T1 construct: CCT4 subunit of the chaperonin TRiC/CCT, yeast; subunit of the purified hetero-oligomeric complex; Purified according to Zang et al., 2016; source: endogenous, purified from yeast lysate as part of TRiC (calmodulin resin, eluted with 2 mM EGTA)

[2] = biological target: the molecule itself; assay: as above

T1 sequence (P39078 whole entry): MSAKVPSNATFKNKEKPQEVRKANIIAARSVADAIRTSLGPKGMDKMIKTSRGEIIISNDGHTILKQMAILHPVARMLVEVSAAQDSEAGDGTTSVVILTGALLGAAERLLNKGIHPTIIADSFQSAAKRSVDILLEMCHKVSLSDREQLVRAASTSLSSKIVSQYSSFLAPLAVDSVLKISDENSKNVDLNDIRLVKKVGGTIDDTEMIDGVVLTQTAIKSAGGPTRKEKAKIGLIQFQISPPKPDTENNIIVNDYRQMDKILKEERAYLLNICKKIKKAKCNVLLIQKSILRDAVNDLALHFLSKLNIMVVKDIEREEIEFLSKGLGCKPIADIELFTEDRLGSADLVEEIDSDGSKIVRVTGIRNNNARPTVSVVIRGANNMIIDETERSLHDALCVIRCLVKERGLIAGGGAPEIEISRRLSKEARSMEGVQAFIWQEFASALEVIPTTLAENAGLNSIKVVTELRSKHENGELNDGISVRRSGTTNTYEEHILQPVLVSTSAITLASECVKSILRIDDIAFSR

Binder	binding result [1]	binding result [2]
B1	binds	binds
B2		binds
